# Test results taken from the nanobody polyreactivity screen of Harvey et al. (2022).
# Experiment: yeast display, Sf9 membrane polyspecificity reagent, FACS + sequencing; frameworks hold sequencing errors
# Summary of the method: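 A synthetic nanobody library was expressed on Saccharomyces cerevisiae BJ5465 by galactose induction for 36–48 hours. The library was stained for 1 hour at 4 °C with 10% biotinylated, detergent-solubilized Sf9 membrane reagent and enriched with streptavidin microbeads before FACS. Low and high (top ~1%) gates were set on anti-HA fluorescence for expression and streptavidin fluorescence for reagent binding, and each polyreactivity label reflects the gate of origin.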
row,Sequence,polyreactivity (PSR sort gate)
1,QVQLVESGGGLFQAGGSLRLSCAASGITFSKNSMGWYRQAPGQERELVAAITRRSVSKYYADSVKGRFTISRDNENNNLYLQMNSLKPEYTAVYYCAASYSSKHGYWGQGTQVTVSS,high polyreactivity
2,QVQLVESGGGLFQAGGSLRLSCAASGLTFNRYAMGWSRQAPGKERELVAAIDYSGGRTYYADSVKGRFTISRDYAKNTVYLQMNSLKPEDTAVFYCNALTRSVSRLLYDFWGQGSQVTVSS,high polyreactivity
3,QVQLVESGGGLFQAGGSLRLSCAASGRIFAYNTMGWYRQAPAKERELVAVITSGGSTNYADSVKGRFTISRDNAKNTVYLQLNSLKAEDTAVYYCAKRPYGRSGGSRYDYWGQGTQVTVSS,high polyreactivity
4,QVQLVESGGGLFQAGGSLRLSCAASGRIFPWNTMGWYRQAPGKERELVAGINNGDRTYYADSVKGRFTISRVNAKNTVYLQMNSLKPEDTAVYYCAVDTWYFLFQYGYYQEGDYWGQGTQVTVSS,low polyreactivity
5,QVQLVESGGGLFQAGGSLRLSCAASGRIFPYKVMGWYRQAPGKERELVAAISSGGTTDYADSVKGRFTISRDNAKNTVYLQMNSLKPEDTAVYYCASTYVYWTWGYDYWGQGTQVTVSS,low polyreactivity
6,QVQLVESGGGLFQAGGSLRLSCAASGRIFYYNTMGWYRQAPGIERELVAGISTRGGRTYYADSVKGRFTISRDNAKNTVYLQMNSLKPEDTAVYYCAKQYGSYGRYYKYYYWGQGTQLTVSS,high polyreactivity
7,QVQLVESGGGLFQAGGSLRLSCAASGRTFKNNAMGWYRQAPGKERELVAAISSNGGSTYYADSVKGRFTISRDNAKNTVYLQMNSLKPEDTAVYYCAADRTIVEYYYWGQGTQVTVSS,high polyreactivity
8,QVQLVESGGGLFQAGGSLRLSCAASGSIFERYTMGWYRQSPGKERELVAAISRSGGRTYYADSVKGRFTISRDNAKNTVYLQMNSLKAEDTAVYYCARTRVASKGYDYWGQGTQVTVSS,high polyreactivity
9,QVQLVESGGGLFQAGGSLRLSCAASGSIFGDYAMGWYRQAPGKERELVAAITSSGGITYYADSVKGRFTISRDNAKNTVYLQMNSLKPEDTAVYYCAAYGYGSNYRYTCYYYWGQGTQVTVSS,low polyreactivity
10,QVQLVESGGGLFQAGGSLRLSCAASGSIFRVYGMGWYRQAPGKERDLVAAITWSGGSTYYADSVKGRFTISRDNAKNTLYVQINSLKPDATAVYYCAARARPRYYRPPYDYWGQGTQVTVSS,high polyreactivity
11,QVQLVESGGGLFQAGGSLRLSCAASGSIFYINAMGWYRQAPGKERELVAAISQSDGSTYYADSVKGRFTISSDNAKNTVYLQLNSLKPEDTAVYYCAADAYVLFYGDWYEFDYWGQGTQVTVSS,high polyreactivity
12,QVQLVESGGGLFQAGGSLRLSCAASGSIYRKYAMGWYRQAPGKERELVATISWNGGRTHYADSVKGRFTISRDNAKNTVYLQMKSLKPEDTAVYYCAAHTRTSGHNYWGQGTQVTVSS,low polyreactivity
13,QVQLVESGGGLFQAGGSLRLSCAASGSTFAFYDMGWYRQATGIERELVAIIDWSGGRTYYADSVKGRFTISRDNAKHTVYLQMNSLKPQDTAVYYCAVDYEYVGGDYWGQGTQVTVSS,low polyreactivity
14,QVQLVESGGGLFQAGGSLRLSCAASGSTFESNAMGWYRQAPGKERELVAAISSSGGSTYYADSVKGRFTISRDNAKNTVYLQMNSLKPEVTAVYYCNKGGLSYYDYWGQVTQVTVSS,high polyreactivity
15,QVQLVESGGGLFQAGGSLRLSCAASGSTFQYNAMGWYRQAPGKERELVARITSGGRTDYADSVKGRFTITRDNAKNTVYLQMNSLKPEDTAVYYCAARYGYRGSTKYLSKPFYYWGQGTQVNVSS,high polyreactivity
16,QVQLVESGGGLFQAGGSLRLSCAASGSTFTTNAMGWYRQAPGKERELVAAITKRGGTTSYADSVKGRFTISRDNAKNSVYLLMNSLKPADTAVYYCAADVEVSWAYDAWWYGGGYYWGQCTQVTVSS,high polyreactivity
17,QVQLVESGGGLFQAGGSLRLSCAASGSTLVGNAMGWYRQAPGKERELVATISSSGGSTYYADSVKGRFTISRDNAKNTVYLQMNSLKPEDTGVYYCAARIQWPTWSLYYYWGQGTQVTVSS,high polyreactivity
18,QVQLVESGGGLFQAGGSLRLSCAASGTFVTYMGWYRQEPGQERELVAAIRNGGSTNYADSVKGRFTISRDNAKNTVYLQMNSLKPEDTAVYYCAARVTYSRGYRGGSRTKYDYWGQGTQVTVSS,low polyreactivity
19,QVQLVESGGGLFQAGGSLRLSCAASGTTLVRYAMGWYRQAPGIERELVASISYSGGSTHYADSVKGRFTISRDNAKNTVYLQMNSLKPEDTAVDYWAARPYYSWGGHYYWGQGTQVTVSS,high polyreactivity
20,QVQLVESGGGLFQAGGSLRLSCAATGRTYEGNAMGWSIQAPGKERELVAAITSGGRTNYADSVKGRFSISRDNAKNTVDLQMNSLKPEDTAVYYCAVETRDRSNYFPGQAYDYWGQGTQVTVSS,low polyreactivity
21,QVQLVESGGGLFQAGGSLRLSFAASGIIFPYNLMGWYRQAPGKERELVAAITRGAASTYYADSVKGRFTISRDHEKNTVYLQMNSLKPEDTAVYFCNADGTWRTYNFWGQGTQVTVSS,high polyreactivity

row,Sequence,polyreactivity (PSR sort gate)
1,QVQLVESGGGLFQAGGSLRLSSAASGFIFWTNVMGWYRQQPGKVRELVAGISKSGGSTYYADSVKGRFTISRDNAKNTVYLQMNCLKPEDTAVYYCAAPRPPAGRYGYWGQGTQVTVSS,high polyreactivity
2,QVQLVESGGGLFQAGGSLRLSSAASGFTFWYYAMGWYRQAPGKERELVASISRTGGTTYYADSVKGRFKISRDIAKNTVYLQMNSLKPEDTAVYYCAARRQARRYWEGDYWCQGTQVTVSS,high polyreactivity
3,QVQLVESGGGLFQAGGSLSLSCAASGFIFYTNAMGWYRQAPGKERELVATITTSGGRTYYADSVKGRFTISRDNAKNTVFLQMNSLKPEDTAVDYCATRYVVIEYDYWGQGTQVTVSS,low polyreactivity
4,QVQLVESGGGLFQEGGSLRLSCAASGYTFKGNAMGWYRQAPGKDWELVAAISRSGASTYYADSVKGRFTISRDNAKNTVYLQMNSLKPEDTAVYYCAAEWYRGGEYRRYDYWGQGTQVTVSS,high polyreactivity
5,QVQLVESGGGLFQPGGILRLSFAASGSTIIDYAMGWYRQEPWKERELVASITWSGGSTYYADSVKGRFTFSRDNAKNTVYLQINCLKPVDSAVYYCNSDVNVGLEVLIVYEYDYWGQGTQVTVSS,low polyreactivity
6,QVQLVESGGGLGQAGASLRLSCAASGLTFRYYALGWYRQAPGKLMELVAAISSRGASTYYADSVKGRITISRDNAKNTVYLQMTSLKPEDTAVYYCAARYTGKYEREYNYWGQGTQVTVSS,high polyreactivity
7,QVQLVESGGGLGQAGASLRLSSAATGFTFRPNAMGWYRQAPGKERELVAAISWRGTRTSYADSVKGRFTISRDNAKNTVYLQMNSLKPEDTAVYSCAARLVRRYDYDYWGQGTQVTVSS,high polyreactivity
8,QVQLVESGGGLGQAGGRLRLSCAASGSIFRRNAMGWYRQAPGKERELVAGISGGGSTYYADSVKGRFTISRDNAKNTVYLQMYSLKPEDTAVYYCATDKHYRWAGFDYWGQGTQVTVSS,low polyreactivity
9,QVQLVESGGGLGQAGGSLRLICAASGRTFLYNAMGWYRQAPGNERELVASITSGGSTNYADSVKGRFTISRDNAKNTVNLQMNSVKPEDTAVYYCAADERRPYWQHSIGSGRPFDYWGQGTQVTVSS,low polyreactivity
10,QVQLVESGGGLGQAGGSLRLSCAASGFTFRTNAMGWYRQAPGKEREFVAAISWSGGRTYYADSVKGRFTISRDNAKNTVYLQMNSLKPEDTAVYYCNADPFHWYYTNMYYWGQGTQVTVSS,high polyreactivity
11,QVQLVESGGGLGQAGGSLRLSCAASGFTFTYNDMGWYRQAPGKEREFVAAISSTGGSTYYADSVKGRFTISRDNAKNTVYLQMNSLKPEDTAVYYCAAEDSWYWDAWFDYWGQGTQVTVSS,low polyreactivity
12,QVQLVESGGGLGQAGGSLRLSCAASGFTFWYYGRGWYRQAPGKERELVAAITSSGGRTSYADSVKGRFTISRDNAKNTVYLQMNSLKPEETADYYCAALYSYYSLYDDYDYWGQGTQVTVSS,high polyreactivity
13,QVQLVESGGGLGQAGGSLRLSCAASGFTFYYNAMGWYRQAPGKERELVATIRGTGSTNYADSVKGRFTISRDNAKNTVYLQMNSLKTEDTAVYYCDAPVDYQGDYWGQGTQVTVSS,low polyreactivity
14,QVQLVESGGGLGQAGGSLRLSCAASGIIFVENAMGWNRQAPGKERELVATITSGDTTNYADSVKGRFTISRDNAKNTVYLQMNSLKPEDTAVYYCKKVVPDDAYIFAYDYWGQGTQVTVSS,low polyreactivity
15,QVQLVESGGGLGQAGGSLRLSCAASGITFSGNAMRWYRQAPGKEREYVAAITWRGENTYYADSVKGRFTISRDTAKNTVSLQMNSLKPVDTAVYYCAAISPLVGLTSYRGPDDSWGQGTQVTVSS,low polyreactivity
16,QVQLVESGGGLGQAGGSLRLSCAASGITFYPNGMGWYRPAPGKEREFVAAITSSGGSTYYADSVKGRFTISRDNAKNTVYLQMNSLKPEDTAVYYCAAQYYPISYYGYGYWGQGTQVTVSS,low polyreactivity
17,QVQLVESGGGLGQAGGSLRLSCAASGLIFNIYARGWYSQAPGKDRELVATIRYSGGSTNYADSVKGRVTISRDNAKNTVNLQMKSLNPEDTAVYYCNAGYYPTGYDYWGQGTQVTVSS,low polyreactivity
18,QVQLVESGGGLGQAGGSLRLSCAASGLIFVRNDMGWYRQAPGKERELVADISDGSTYADSVKGRFTISRDNAKNTVYLQMNSLKPEDTAVYYCNKDNHDVELPVEFEYWGQGTHVTVSS,high polyreactivity
19,QVQLVESGGGLGQAGGSLRLSCAASGRIFYRYVMGWYRPAPGKERELVAAITTSGGRTYYADSVKGRFTISRDNAKNTVYLQLNSLKPEDTAVYDCAAASPTPVYWSGRDYYYWGQGTQVTVSS,high polyreactivity
20,QVQLVESGGGLGQAGGSLRLSCAASGRTFYYYTMGWYRPAPGKERELVAAITHGGSTYYADSVKGRFTISRDNAQNTVYLQMNSLKPEDTAVYSCTAVYHYPYEYWGQGTQVTVSS,high polyreactivity
